Source: the supplement of paper PMC7877785
± gives the uncertainty stated by the source.

Test: self-splicing fitness, log relative to wild type (ln ratio); higher = more splicing; Tetrahymena group I intron in knt gene, E. coli kanamycin selection, DiMSum; sequences stand for … in CUCUCU…GGAGGGAAAAGUUAUCAGGCAUGCACCUGGUAGCUAGUCUUUAAACCAAUAGAUUGCAUCGGUUUAAAAGGCAAGACCGUCAAAUUGCGGGAAAGGGGUCAACAGCCGUUCAGUACCAAGUCUCAGGGGAAACUUUGAGAUGGCCUUGCAAAGGGUAUGGUAAUAAGCUGACGGACAUGGUCCUAACCACGCAGCCAAGUCCUAAGUCAACAGAUCUUCUGUUGAUAUGGAUGCAGUUCACAGACUAAAUGUCGGUCGGGGAAGAUGUAUUCUUCUCAUAAGAUAUAGUCGGACCUCUCCUUAAUGGGAGCUAGCGGAUGAAGUGAUGCAACACUGGAGCCGCUGGGAACUAAUUUGUAUGCGAAAGUAUAUUGAUUAGUUUUGGAGUACUCGUGGUCG
Procedure, shortened: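 Six replicate transformations of E. coli BL21(DE3) with a pET-22b(+) library were grown overnight at 37°C or 30°C. The library randomised all eight P1ex-region intron nucleotides, the intron lying in the knt kanamycin-resistance gene, and plates were LB agar with or without 25 μg/mL kanamycin plus 100 μg/mL carbenicillin, 50 μM IPTG and 0.2% rhamnose. Pooled colonies were amplicon-sequenced on an Illumina HiSeq 2500, and fitness is the DiMSum error-weighted combination of wild-type-normalised replicate fold changes, kanamycin versus none.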

Sequence	self-splicing fitness (ln) (30 °C)	self-splicing fitness (ln) (37 °C)
CACCAGCAAUAUUACGGUUA	-0.251 ± 0.068	-0.0422 ± 0.09
CACCAGCAAUAUUACGUAAU	-2.63 ± 0.078	-1.89 ± 0.097
CACCAGCAAUAUUACGUACA	-3.16 ± 0.17	-1.59 ± 0.13
CACCAGCAAUAUUACGUAUC	-3.55 ± 0.14	-2.99 ± 0.19
CACCAGCAAUAUUACGUAUG	-0.556 ± 0.041	-0.105 ± 0.055
CACCAGCAAUAUUACGUCCG	-0.0929 ± 0.051	0.19 ± 0.071
CACCAGCAAUAUUACGUGCC	-3.42 ± 0.27	-1.27 ± 0.46
CACCAGCAAUAUUACGUGUA	-2.09 ± 0.065	-0.896 ± 0.069
CACCAGCAAUAUUACGUUGA	-4.33 ± 0.31	-2.1 ± 0.13
CACCAGCAAUAUUACGUUUU	-3.95 ± 0.15	-3.22 ± 0.18
CACGAGCAAUAUUACGAAAC	-2.02 ± 0.36	-1.68 ± 0.4
CACGAGCAAUAUUACGAAGG	-3.2 ± 0.19	-2.01 ± 0.26
CACGAGCAAUAUUACGACAU	-3.645 ± 0.024	-2.92 ± 0.04
CACGAGCAAUAUUACGACCU	-2.18 ± 0.17	-2.27 ± 0.27
CACGAGCAAUAUUACGAGCC	-3.12 ± 0.31	-3.55 ± 0.47
CACGAGCAAUAUUACGAGCU	-4.14 ± 0.35	-3.33 ± 0.39
CACGAGCAAUAUUACGAGUG	-3.34 ± 0.17	-1.83 ± 0.18
CACGAGCAAUAUUACGAUAA	-3.63 ± 0.32	-2.32 ± 0.28
CACGAGCAAUAUUACGAUAU	-2.64 ± 0.15	-2.19 ± 0.28
CACGAGCAAUAUUACGCAGC	–	-1.29 ± 0.35
CACGAGCAAUAUUACGCCAC	-2.97 ± 0.38	-1.02 ± 0.34

Sequence	self-splicing fitness (ln) (30 °C)	self-splicing fitness (ln) (37 °C)
CACGAGCAAUAUUACGCCAG	-3.4 ± 0.27	-2.95 ± 0.28
CACGAGCAAUAUUACGCGGA	-3.61 ± 0.37	-3.37 ± 0.4
CACGAGCAAUAUUACGCUUC	-3.96 ± 0.24	-3.25 ± 0.3
CACGAGCAAUAUUACGGAAU	-2.85 ± 0.25	-1.67 ± 0.23
CACGAGCAAUAUUACGGCUC	-2.71 ± 0.29	-1.6 ± 0.28
CACGAGCAAUAUUACGUAAC	-2.41 ± 0.27	–
CACGAGCAAUAUUACGUCCG	-1.34 ± 0.092	-0.226 ± 0.096
CACGAGCAAUAUUACGUUAC	-4.19 ± 0.36	-1.25 ± 0.23
CACGAGCAAUAUUACGUUGC	-3.91 ± 0.24	-2.14 ± 0.21
CACUAGCAAUAUUACGACAA	-3.16 ± 0.37	-2.06 ± 0.29
CACUAGCAAUAUUACGAGCA	-3.42 ± 0.18	-0.879 ± 0.11
CACUAGCAAUAUUACGAGGC	-4.08 ± 0.42	-2.38 ± 0.2
CACUAGCAAUAUUACGAUUA	-1.21 ± 0.21	-2.44 ± 0.28
CACUAGCAAUAUUACGCACG	-0.378 ± 0.099	-0.823 ± 0.089
CACUAGCAAUAUUACGCACU	-1.54 ± 0.11	-0.108 ± 0.11
CACUAGCAAUAUUACGCAUU	-3.06 ± 0.23	-2.17 ± 0.17
CACUAGCAAUAUUACGCCCA	-1.1 ± 0.16	-1.35 ± 0.27
CACUAGCAAUAUUACGCGAC	-3.04 ± 0.18	-3.16 ± 0.3
CACUAGCAAUAUUACGCGAG	-2.13 ± 0.26	-1.79 ± 0.17
CACUAGCAAUAUUACGCUGC	-3.71 ± 0.32	-2.76 ± 0.35
CACUAGCAAUAUUACGGACA	-1.84 ± 0.16	-1.99 ± 0.18
